Data set [1] deals with KIDS cPLA2 mRNA in hippocampal dentate gyrus. In words: In situ hybridization of brain slices after kainic acid stimulation. It counts as in vivo, Wister rat. The following applies: rat brain, riboprobe C, with or without kainic acid stimulation. On the procedure: Brain of Wister rat of 3 weeks age stimulated by kainic acid was fixed by 4% paraformaldehyde and then a frozen slice was prepared. Each of the radio-labeled riboprobes B, C and D was subjected to a hybridization reaction with the frozen slice and the labeled image of the slice from each probe was confirmed to be same. Then, frozen slice of the brain was prepared again using riboprobe C with or without a kainic acid stimulation and an expression pattern of KIDS cPLA2 mRNA was investigated.

Data set [2] relates to KIDS cPLA2 protein in hippocampal dentate gyrus. Nature of the data set: Immunohistochemical dyeing of brain slices after kainic acid stimulation. Type of data set: in vivo, cPLA2a knockout mouse, C57/Black 6J mouse, Wister rat. The settings on record: anti-KIDS cPLA2 stump antibody. On the procedure:
Brains of cPLA2a knockout mouse and C57/Black 6J mouse of 6-10 weeks age and Wister rat of 3 weeks age stimulated by kainic acid were fixed with 4% paraformaldehyde and then frozen slices were prepared. Immunoreaction of an anti-KIDS cPLA2-specific stump antibody with the brain slice was carried out overnight at 4° C. and expression of KIDS cPLA2 protein was confirmed by a secondary antibody labeled with gold colloid.

Another data set has as its system nerve stem cells. In words: Expression of KIDS cPLA2 in nerve stem cells after stimulation. Type of data set: cell-based. The settings on record: kainic acid 10 μM, probe P19-P27, FIG. 14. The procedure: Then expression of KIDS cPLA 2 of the present invention using nerve stem cells by means of stimulation by kainic acid (10 μM), by kainic acid and CNQX (10 μM KA and 20 μM CNQX) and by glutamic acid (50 μM) was investigated.
The result is shown in FIG. 14 which is a picture as a substitute for a drawing. In FIG. 14, the probe used is P90-P27 of 252 bp (the said sequence is a sequence of a moiety which is common in the full-length cPLA2) in the upper column, P19-P27 of 290 bp (the said sequence contains a sequence specific to KIDS cPLA2 of the present invention) in the second column and G3 PDH and nestin in the lower two columns as controls.
The lanes in FIG. 14 are control and stimulations by kainic acid (KA (10 μM)), by kainic acid and CNQX (KA (10 μM)+CNQX (20 μM)) and by glutamic acid (Glu (50 μM)) from the left side.

Data set [3] is described as follows: Calcium dependency of enzymatic activity (EDTA-Ca). Type of data set: biochemical. The following applies: substrate 1-Pam-2-[^14C]arachidonoyl-PC. The text has this: Then, calcium dependency of cPLA2α and KIDS cPLA2 of the present invention on enzymatic activity was investigated using 1-Pam-2-[^14C]arachidonoyl-PC as a substrate. EDTA-Ca was used as a calcium source.
The solid lines in FIG. 8 are the case of KIDS cPLA of the present invention while the broken lines therein are the case of cPLA2α. In each of them, the black dots (●) are the data in the absence of EDTA-Ca while the open circles (◯) are those in the presence of EDTA-Ca.
It is noted that, in the case of KIDS cPLA2 of the present invention, an activity of around 40% is maintained even […] while, in the case of cPLA2α, the activity is reduced to an extent of around 10-15% […].

A short description of data set [4]: Enzymatic (phospholipase A2) activity of KIDS cPLA2 and cPLA2α on radiolabelled PC substrates. Type of data set: biochemical. The following applies: difference from the control. From the text: Then enzymatic activity of cPLA2α and KIDS cPLA2 of the present invention were investigated. There were used 1-Pam-2-[^14C] arachidonoyl-PC (black dots (●) in FIG. 7), 1-Pam-2-[^14C]Iinoleoyl-PC (black triangles (▴) in FIG. 7), 1-Pam-2-[^14C]oleoyl-PC (black squares (▪) in FIG. 7) and 1-Pam-2-[^14C]palmitoyl-PC (asterisks (*) in FIG. 7) as the substrates for testing the enzymatic activity of each of them. In FIG. 7, the left side is that for KIDS cPLA2 of the present invention while the right side is that for cPLA2α.
Incidentally, the phospholipase A2 activity is given in terms of the difference from the control.

On to `C=C(C)[C@H]1CN[C@H](C(=O)O)[C@H]1CC(=O)O` [kainic acid], for which, in data set [1], the “Expression pattern of KIDS cPLA2 mRNA” value is “drastically induced in the hippocampal dentate gyrus”. For the same molecule, the “Expression of KIDS cPLA2 protein” value in data set [2] is recorded as “drastically induced in the hippocampal dentate gyrus”. Further, the “Expression of KIDS cPLA2” value in the data set on nerve stem cells is on record as “specific expression of KIDS cPLA2 of the present invention was confirmed”.

B1: cPLA2α: cytosolic phospholipase A2 (cPLA2α) of 85 kDa, the conventional full-length enzyme (protein, UniProt P47712 1-749, looked up)
chain: MSFIDPYQHIIVEHQYSHKFTVVVLRATKVTKGAFGDMLDTPDPYVELFISTTPDSRKRTRHFNNDINPVWNETFEFILDPNQENVLEITLMDANYVMDETLGTATFTVSSMKVGEKKEVPFIFNQVTEMVLEMSLEVCSCPDLRFSMALCDQEKTFRQQRKEHIRESMKKLLGPKNSEGLHSARDVPVVAILGSGGGFRAMVGFSGVMKALYESGILDCATYVAGLSGSTWYMSTLYSHPDFPEKGPEEINEELMKNVSHNPLLLLTPQKVKRYVESLWKKKSSGQPVTFTDIFGMLIGETLIHNRMNTTLSSLKEKVNTAQCPLPLFTCLHVKPDVSELMFADWVEFSPYEIGMAKYGTFMAPDLFGSKFFMGTVVKKYEENPLHFLMGVWGSAFSILFNRVLGVSGSQSRGSTMEEELENITTKHIVSNDSSDSDDESHEPKGTENEDAGSDYQSDNQASWIHRMIMALVSDSALFNTREGRAGKVHNFMLGLNLNTSYPLSPLSDFATQDSFDDDELDAAVADPDEFERIYEPLDVKSKKIHVVDSGLTFNLPYPLILRPQRGVDLIISFDFSARPSDSSPPFKELLLAEKWAKMNKLPFPKIDPYVFDREGLKECYVFKPKNPDMEKDCPTIIHFVLANINFRKYRAPGVPRETEEEKEIADFDIFDDPESPFSTFNFQYPNQAFKRLHDLMHFNTLNNIDVIKEAMVESIEYRRQNPSRCSVSLSNVEARRFFNKEFLSKPKA
modifications: full-length
notes: cytosolic phospholipase A2 (cPLA2α) of 85 kDa, the conventional full-length enzyme
Turning to B1, the “Activity maintained in the presence of calcium (relative ratio)” value in data set [3] (EDTA-Ca, FIG. 9) is recorded as 10-15%. The “Change of enzymatic activity by the presence of calcium” value in data set [3] (with and without EDTA-Ca, FIG. 8) is “sudden reduction in the activity by the presence of calcium”. For the same molecule, the “Phospholipase A2 Activity” value in data set [4] (substrate 1-Pam-2-[^14C]arachidonoyl-PC) is reported as 24.4 ± 1.4 pmol/min; in data set [4] (substrate 1-Pam-2-[^14C]linoleoyl-PC) it was 11.9 ± 1.8 pmol/min; in data set [4] (substrate 1-Pam-2-[^14C]oleoyl-PC), 9.1 ± 1.1 pmol/min; in data set [4] (substrate 1-Pam-2-[^14C]palmitoyl-PC), 9.8 ± 1.7 pmol/min.
